Reference: patent publication US20070253950A1 (Pfizer, published 2007)

Legend:
[1] = molecular target: T1, human RAGE-strep tag fusion protein (human, UniProt Q15109 23-344); experiment: BIACORE capture assay: hRAGE-SA over antibody captured on anti-human Fc; 1:1 Langmuir global fit; FC3
T1 construct: monomeric soluble human RAGE; also called hRAGE-SA; soluble human streptavidin-tagged RAGE
Description: (§1) The assays were performed by coating anti-human Fc antibodies onto a CM5 BIA chip with 5000 RU (pH 5.0, 7 min.) in flow cells 1-4. Each antibody was captured by flowing at 2.0 μg/ml over the anti-Fc antibodies in flow cells 2-4 (flow cell 1 was used as a reference).

[2] = molecular target: T2, human RAGE-Fc fusion protein (human, UniProt Q15109 23-344); experiment: ligand competition ELISA, panel 'Blocks hRAGE-Fc interaction with HMGB1'; blocked ligand HMGB1
T2 construct: amino acids 1-344 of human RAGE appended to the Fc domain of human IgG; also called hRAGE-Fc; huRAGE-Fc

[3] = molecular target: T3, murine RAGE-strep tag fusion protein (murine, UniProt Q62151 23-343); experiment: BIACORE capture assay: mRAGE-SA (SA-Mu RAGE) over antibody captured on anti-human Fc; 1:1 Langmuir global fit; FC4
T3 construct: also called mRAGE-strep; mRAGE-SA
T3 chain: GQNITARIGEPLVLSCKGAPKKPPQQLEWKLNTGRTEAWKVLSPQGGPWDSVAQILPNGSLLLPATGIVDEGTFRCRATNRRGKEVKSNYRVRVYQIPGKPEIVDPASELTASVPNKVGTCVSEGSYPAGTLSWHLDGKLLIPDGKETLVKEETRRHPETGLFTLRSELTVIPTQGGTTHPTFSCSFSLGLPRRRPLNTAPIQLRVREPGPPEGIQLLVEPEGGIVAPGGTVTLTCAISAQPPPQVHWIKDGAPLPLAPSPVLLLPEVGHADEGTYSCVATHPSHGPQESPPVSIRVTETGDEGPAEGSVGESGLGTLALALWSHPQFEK
Description: as §1

[4] = molecular target: T1, human RAGE-strep tag fusion protein; experiment: BIACORE capture assay: hRAGE-SA over antibody captured on anti-human Fc; 1:1 Langmuir global fit; FC2
Description: as §1

[5] = molecular target: T3, murine RAGE-strep tag fusion protein; experiment: BIACORE capture assay: mRAGE-SA (SA-Mu RAGE) over antibody captured on anti-human Fc; 1:1 Langmuir global fit; FC2
Description: as §1

[6] = molecular target: T2, human RAGE-Fc fusion protein; experiment: ligand competition ELISA, panel 'Blocks hRAGE-Fc interaction with S100-A'; blocked ligand S100-A
rhNCAM-1 = rhNCAM-1 (human, UniProt P13591-1 20-603, limits assumed); experiment: direct binding ELISA, receptor coated 1 µg/ml, antibody 20 µg/ml
Chain of rhNCAM-1 (P13591 other isoform, or with tags, fused parts or gaps limits assumed): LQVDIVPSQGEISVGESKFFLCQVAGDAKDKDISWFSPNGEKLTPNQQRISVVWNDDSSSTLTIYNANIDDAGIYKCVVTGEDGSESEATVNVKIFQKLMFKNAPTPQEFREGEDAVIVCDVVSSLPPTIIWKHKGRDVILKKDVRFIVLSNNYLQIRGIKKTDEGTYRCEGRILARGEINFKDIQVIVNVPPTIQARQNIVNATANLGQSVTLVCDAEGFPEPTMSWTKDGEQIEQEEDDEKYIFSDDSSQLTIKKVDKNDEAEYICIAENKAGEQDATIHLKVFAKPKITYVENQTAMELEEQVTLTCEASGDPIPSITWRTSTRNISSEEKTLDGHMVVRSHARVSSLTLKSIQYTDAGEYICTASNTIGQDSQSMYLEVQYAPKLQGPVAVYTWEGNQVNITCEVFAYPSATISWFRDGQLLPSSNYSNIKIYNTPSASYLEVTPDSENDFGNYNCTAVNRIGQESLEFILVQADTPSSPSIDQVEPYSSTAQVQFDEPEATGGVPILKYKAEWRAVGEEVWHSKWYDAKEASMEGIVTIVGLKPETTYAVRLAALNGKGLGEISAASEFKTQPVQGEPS
Description: (§2) These receptors were chosen because they are cell-surface expressed, like RAGE, and their interaction with ligand is similarly dependent on charge. Tested receptors were rhVCAM-1, rhICAM-1-Fc, rhTLR4 (C-terminal His tag), rhNCAM-1, rhB7-H1-Fc mLox1-Fc, hLox1-Fc and hRAGE-Fc (as a positive control). ELISA plates were coated overnight with 1 μg/ml of the listed receptor proteins.

mLox1-Fc = mLox1-Fc (mouse, UniProt Q9EQ09 60-363, limits assumed); experiment: as above
Chain of mLox1-Fc (Q9EQ09 60-363 limits assumed): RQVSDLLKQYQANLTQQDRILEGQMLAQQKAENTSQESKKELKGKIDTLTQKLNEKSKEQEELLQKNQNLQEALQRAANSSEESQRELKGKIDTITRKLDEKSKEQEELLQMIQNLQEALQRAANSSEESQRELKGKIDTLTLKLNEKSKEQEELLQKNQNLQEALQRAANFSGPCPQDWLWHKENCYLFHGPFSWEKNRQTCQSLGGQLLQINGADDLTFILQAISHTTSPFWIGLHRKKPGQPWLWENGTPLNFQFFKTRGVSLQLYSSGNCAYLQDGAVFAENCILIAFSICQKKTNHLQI
Description: as §2

rhB7-H1-Fc = rhB7-H1-Fc (human, UniProt Q9NZQ7 19-239); experiment: as above
Chain of rhB7-H1-Fc (Q9NZQ7 19-239 limits assumed): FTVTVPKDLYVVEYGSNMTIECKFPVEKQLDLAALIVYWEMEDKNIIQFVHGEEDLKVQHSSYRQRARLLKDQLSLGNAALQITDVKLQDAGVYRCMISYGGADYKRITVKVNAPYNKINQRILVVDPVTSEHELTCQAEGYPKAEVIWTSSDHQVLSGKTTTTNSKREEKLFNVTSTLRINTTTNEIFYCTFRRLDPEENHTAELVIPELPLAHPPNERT
Description: as §2

hLox1-Fc = hLox1-Fc (human, UniProt P78380 61-273); experiment: as above
Description: as §2

rhICAM-1-Fc = molecular target: T4, rhICAM-1-Fc (human, UniProt P05362 28-480); experiment: as above
T4 construct: also called rhlCAM-1-Fc
T4 sequence (P05362 28-480 limits assumed): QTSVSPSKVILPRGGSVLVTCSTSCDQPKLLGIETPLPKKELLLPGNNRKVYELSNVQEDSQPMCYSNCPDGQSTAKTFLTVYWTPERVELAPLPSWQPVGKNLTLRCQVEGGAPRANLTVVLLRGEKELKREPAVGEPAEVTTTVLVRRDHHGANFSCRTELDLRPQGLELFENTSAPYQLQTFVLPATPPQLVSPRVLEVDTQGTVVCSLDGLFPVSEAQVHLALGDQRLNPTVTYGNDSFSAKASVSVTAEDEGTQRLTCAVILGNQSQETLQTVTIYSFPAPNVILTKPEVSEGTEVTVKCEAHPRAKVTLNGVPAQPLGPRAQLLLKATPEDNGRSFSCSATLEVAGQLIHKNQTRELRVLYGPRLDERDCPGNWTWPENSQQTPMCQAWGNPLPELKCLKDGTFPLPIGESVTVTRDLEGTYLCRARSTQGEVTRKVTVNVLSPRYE
Description: as §2

rhVCAM-1 = molecular target: T5, rhVCAM-1 (human, UniProt P19320 25-698); experiment: as above
T5 sequence (looked up): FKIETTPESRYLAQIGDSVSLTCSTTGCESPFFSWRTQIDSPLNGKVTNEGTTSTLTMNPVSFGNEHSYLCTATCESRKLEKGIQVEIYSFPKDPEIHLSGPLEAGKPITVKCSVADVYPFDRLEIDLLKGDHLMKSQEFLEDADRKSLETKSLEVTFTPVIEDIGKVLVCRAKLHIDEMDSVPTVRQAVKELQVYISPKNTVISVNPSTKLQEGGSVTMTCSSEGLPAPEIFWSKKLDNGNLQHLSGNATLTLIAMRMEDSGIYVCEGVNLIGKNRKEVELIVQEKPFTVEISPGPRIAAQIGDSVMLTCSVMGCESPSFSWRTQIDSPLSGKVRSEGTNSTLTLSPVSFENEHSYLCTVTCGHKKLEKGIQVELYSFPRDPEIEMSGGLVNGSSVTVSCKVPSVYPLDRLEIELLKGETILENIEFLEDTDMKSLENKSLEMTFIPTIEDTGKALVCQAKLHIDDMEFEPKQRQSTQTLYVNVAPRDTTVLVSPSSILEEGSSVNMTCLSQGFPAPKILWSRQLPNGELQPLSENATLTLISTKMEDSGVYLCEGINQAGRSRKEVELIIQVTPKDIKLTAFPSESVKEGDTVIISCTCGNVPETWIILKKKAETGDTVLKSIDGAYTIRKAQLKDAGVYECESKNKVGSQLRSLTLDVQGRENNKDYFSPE
Description: as §2

[7] = molecular target: T2, human RAGE-Fc fusion protein; experiment: as above
Description: as §2

[8] = molecular target: T1, human RAGE-strep tag fusion protein; experiment: BIACORE capture assay: hRAGE-SA over antibody captured on anti-human Fc; steady state affinity; FC4
Description: as §1

B1: chimeric XT-M4 (antibody, V domains shown)
VH: EVQLVESGGGLVQPGRSLKLSCVVSGFTFNNYWMTWIRQTPGKGLEWVASINNSGDNTYYPDSVKDRFTISRDNAKSTLYLQMNSLRSEDTATYYCTRGGDITTGFDYWGQGVMVTVSS
VL: DIQMTQSPSSMSVSLGDTITITCRASQDVGIYVNWFQQKPGKSPRRMIYRATNLADGVPSRFSGSRSGSIYSLTISSLESEDVADYHCLEFDEHPLTFGSGTKVEIK
modifications: N-linked oligosaccharide at Asn52 (CDR2) on part of the heavy chains
notes: rat XT-M4 variable regions fused to human kappa light chain and human IgG1 heavy chain constant regions; L234A and G237A in the human IgG1 Fc region; also called chimeric antibody XT-M4; XT-M4-A-1
Kd [1]: 7.33 nM
koff [1]: 0.0271 s⁻¹
kon [1]: 3.7e+06 M⁻¹ s⁻¹
IC50 (read off the curve) [2]: ~0.1 mg/L
Kd [3]: 2 nM
koff [3]: 0.0041 s⁻¹
kon [3]: 2.1e+06 M⁻¹ s⁻¹
Kd [4]: 8.2 nM
koff [4]: 0.0281 s⁻¹
kon [4]: 3.42e+06 M⁻¹ s⁻¹
Kd [5]: 1.9 nM
koff [5]: 0.0042 s⁻¹
kon [5]: 2.2e+06 M⁻¹ s⁻¹
IC50 (read off the curve) [6]: ~0.08 mg/L
OD450 (rhNCAM-1): 0.006
OD450 (mLox1-Fc): 0.01
OD450 (rhB7-H1-Fc): 0.003
OD450 (hLox1-Fc): 0.017
OD450 (rhICAM-1-Fc): 0.004
OD450 (rhVCAM-1): 0.004
OD450 [7]: 3.8
Kd [8]: 11 nM
